Results: patent US8227408B2, “Leptin as an anti-amyloidogenic biologic and methods for delaying the onset and reducing Alzheimer's disease-like pathology” (Neurotez, Inc., priority 2005, dated 2012)

System: Neuro2a cells stably transfected with hyg-sa134 (SEAP-APP)
Assay: Aβ production by Neuro2a cells stably transfected with hyg-sa134 (total Aβ in media, sandwich ELISA)
Format: cell-based, mouse
Method: Neuro2a (mouse neuroblastoma) stably transfected with hyg-sa134, a pcDNA3.1/Hygro plasmid (Invitrogen, CA) modified to express a fusion protein of secreted alkaline phosphatase (SEAP) and a fragment of APP consisting of the C-terminal 134 amino acids (“CAPP134”) (SEQ ID NO:10) were maintained in culture as described ([…]) in the presence of 400 μg/ml of hygromycin. SEQ ID NO: 11 is the DNA sequence of the entire hygsa134 vector, which was derived from the pcDNA3.1/Hygro vector by genetic manipulation to insert the DNA sequences for SEAP and CAPP134. The SEAP-CAPP cDNA insert from hyg-sa134 was also subcloned into an adenoviral vector using the Adeno Vator system (Qbiogene, Calif.). The DNA sequence for SEAP (corresponding to nucleotides 981-2441 of hyg-sa134) (SEQ ID NO: 9) is located 5′ to the DNA sequence (SEQ ID NO: 12) coding for CAPP134 (SEQ ID NO: 10).
SY5Y and hyg-sa134-Neuro2a cells were treated at 80% confluency (see below). Primary neural cultures from mouse embryos were allowed to grow for 6-12 days following plating and prior to viral infection and treatments.
About 5 μg/ml or about 10 μg/ml water-soluble cholesterol was added to cultures for 2 or 5 hours. Water soluble cholesterol (Sigma-Aldrich, MO) is a solution made of cholesterol balanced with cyclodextrin CDX (40 mg cholesterol per gr CDX). For comparison, cultures were treated with the equivalent amount of the resin alone, which leads to depletion of cholesterol in the cultures (Simons et al., Proc Natl Acad Sci USA. 95:6460-4 (1998)).
About 100 ng/ml or about 400 ng/ml leptin (Harbor-UCLA, CA), was added in cell culture medium for 2 or 5 h. Cells were approximately 80% confluent at the time of treatment. Peptide YY (3-36) (Phoenix Pharmaceuticals, Inc., CA), and CNTF (Sigma-Aldrich, Mo.) were added at about 25 μM or 150 μM for the same incubation periods. TOFA, etomoxir (Research Biochemicals International, MA) and cerulenin (Sigma-Aldrich, Mo.) were used as described below.
For the determination of Aβ peptide several methodologies also were used. SY5Y cells in culture were metabolically labeled with ^35S-[Met] as described (Figueiredo-Pereira et al. J Neurochem. 72:1417-22 (1999)), followed by immunoprecipitation, resolution of the immunoprecipitates on SDS-PAGE, autoradiography, and densitometric analysis of the autoradiogram. Neuro2a cells were stably transfected with hyg-sa134 (K. Sambamurti, S. Carolina Medical Center, SC) and Aβ40 (SEQ ID NO: 4) plus Aβ42 (SEQ ID NO: 5) plus Aβ43 (SEQ ID NO: 6) (Total Aβ) in the medium then was quantified by sandwich ELISAs developed with 4G8 and 6 ε10 monoclonal antibodies (Signet, Mass.) as described (Figueiredo-Pereira et al., J Neurochem. 72:1417-22 (1999)). Commercially available ELISA kits (KMI Diagnostics, MN) were used for the separate determination of Aβ40 (SEQ ID NO:4) and Aβ42/43 (SEQ ID NO:5/SEQ ID NO:6) in formic acid extracts of mice brains. Flotillin was detected using monoclonal anti-flotillin-1 antibodies (BD Biosciences, CA). Actin was detected using monoclonal anti-actin antibodies (Research Diagnostics, Inc, NJ).
Human (SYSY) or mouse neuroblastoma cell-lines (Neuro2a) commonly are used to study amyloid β metabolism in vitro. Neuro2a cells are stably transfected with hyg-sa134 (SEQ ID NO: 11), a plasmid driving the expression of a recombinant fusion protein containing the human C-terminal fragment of APP of about 134 amino acids, CAPP134 (SEQ ID NO: 10). Here, 5Y5Y or Neuro2a cultures were treated for 2 or 5 h with about 100 ng/ml or about 400 ng/ml leptin (FIG. 4a, 4b). Similarly, primary neurons from embryonic rat brain, infected with an adenovirus to direct the expression of CAPP134 (SEQ ID NO:10) also were treated according to the same regimen. […]

B1: Leptin: peptide hormone controlling adaptive metabolic mechanisms to energy availability; leptin (Harbor-UCLA) in vitro, recombinant murine leptin in mice (protein, UniProt P41160 22-167, looked up)
Leptin: VPIQKVQDDTKTLIKTIVTRINDISHTQSVSAKQRVTGLDFIPGLHPILSLSKMDQTLAVYQQVLTSLPSQNVLQIANDLENLRDLLHLLAFSKSCSLPQTSGLQKPESLDGVLEASLYSTEVVALSRLQGSLQDILQQLDVSPEC
Question: Which “Aβ production / levels of Aβ in the media (in words)” value (2 or 5 h treatment) does the source give for B1 here?
Answer: dose- and time-dependent decrease

Question: And the “levels of Aβ detected in the media (percentage of corresponding controls), leptin co-administered with cholesterol” value (5 h, highest concentrations of leptin, co-administered with cholesterol, FIG. 4b)?
Answer: 150±4%

Question: And the “Neuro2a/SEAP-APP Aβ(% control)” value (total Aβ in conditioned media, 5 h, concentration (TOFA 200 μM, cerulenin 200 μM, etomoxir 40 μM, peptide YY (3-36) 25 μM, CNTF 25 μM, leptin 400 ng/ml), mean ± SEM, 4 experiments, NS = non-significant)?
Answer: 56 ± 5 % control
